What was measured:
[1] = biological target: T1, human N-cadherin naturally expressed on DX3 melanoma cells (human, UniProt P19022 160-906); assay: adhesion of DX3 cells to coated N-cadherin-Fc
T1 construct: also called DX3 Cells; N-cadherin+ve DX3 melanoma cells
T1 sequence: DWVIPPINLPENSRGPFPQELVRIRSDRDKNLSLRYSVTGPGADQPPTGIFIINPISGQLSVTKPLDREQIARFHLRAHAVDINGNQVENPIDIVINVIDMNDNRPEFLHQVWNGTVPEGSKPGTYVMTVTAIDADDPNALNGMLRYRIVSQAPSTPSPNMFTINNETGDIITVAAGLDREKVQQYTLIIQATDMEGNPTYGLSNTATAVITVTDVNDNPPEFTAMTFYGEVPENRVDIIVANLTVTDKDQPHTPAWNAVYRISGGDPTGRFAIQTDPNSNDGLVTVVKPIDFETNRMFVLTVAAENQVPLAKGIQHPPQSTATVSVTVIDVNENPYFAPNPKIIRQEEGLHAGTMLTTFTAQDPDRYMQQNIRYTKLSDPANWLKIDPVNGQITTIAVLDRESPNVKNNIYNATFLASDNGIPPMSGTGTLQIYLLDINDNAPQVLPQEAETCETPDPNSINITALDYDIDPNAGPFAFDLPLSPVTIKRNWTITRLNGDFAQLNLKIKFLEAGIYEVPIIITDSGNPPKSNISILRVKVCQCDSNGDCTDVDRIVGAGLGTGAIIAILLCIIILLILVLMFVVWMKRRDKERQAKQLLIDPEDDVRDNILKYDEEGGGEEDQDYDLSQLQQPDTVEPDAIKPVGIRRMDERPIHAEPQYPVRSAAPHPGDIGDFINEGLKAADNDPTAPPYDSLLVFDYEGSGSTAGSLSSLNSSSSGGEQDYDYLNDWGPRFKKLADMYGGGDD
Description: Monomeric or dimeric N-cadherin-Fc fusion protein in Cos cell supernatants was added as described for the ELISA assay. DX3 Cells, a human melanoma cell line which expresses N-cadherin, were dissociated with Cell Dissociation Solution (Sigma, code C5789), resuspended in HBSS with 2% FCS and assessed for adhesion to wild type or mutant N-cadherin-Fc as previously described (Corps et al., 2001). Microscopic examination established that the cells were present as a single cell suspension as they settled onto the plate. For assays conducted in reducing conditions, 10 mM DTT was present during the adhesion and washing steps. Determinations were conducted in triplicate and results are presented as mean +/−sem.

[2] = biological target: T2, mouse N-cadherin on L cells after removal of the prodomain with trypsin (mouse, UniProt P15116 160-906); assay: adhesion of trypsin-treated L cell transfectants to coated N-cadherin Fc
T2 construct: whole, on cells; Removal of the prodomain was almost complete by western blot; also called L cells after treatment; trypsin-treated L cell transfectants
T2 sequence (looked up): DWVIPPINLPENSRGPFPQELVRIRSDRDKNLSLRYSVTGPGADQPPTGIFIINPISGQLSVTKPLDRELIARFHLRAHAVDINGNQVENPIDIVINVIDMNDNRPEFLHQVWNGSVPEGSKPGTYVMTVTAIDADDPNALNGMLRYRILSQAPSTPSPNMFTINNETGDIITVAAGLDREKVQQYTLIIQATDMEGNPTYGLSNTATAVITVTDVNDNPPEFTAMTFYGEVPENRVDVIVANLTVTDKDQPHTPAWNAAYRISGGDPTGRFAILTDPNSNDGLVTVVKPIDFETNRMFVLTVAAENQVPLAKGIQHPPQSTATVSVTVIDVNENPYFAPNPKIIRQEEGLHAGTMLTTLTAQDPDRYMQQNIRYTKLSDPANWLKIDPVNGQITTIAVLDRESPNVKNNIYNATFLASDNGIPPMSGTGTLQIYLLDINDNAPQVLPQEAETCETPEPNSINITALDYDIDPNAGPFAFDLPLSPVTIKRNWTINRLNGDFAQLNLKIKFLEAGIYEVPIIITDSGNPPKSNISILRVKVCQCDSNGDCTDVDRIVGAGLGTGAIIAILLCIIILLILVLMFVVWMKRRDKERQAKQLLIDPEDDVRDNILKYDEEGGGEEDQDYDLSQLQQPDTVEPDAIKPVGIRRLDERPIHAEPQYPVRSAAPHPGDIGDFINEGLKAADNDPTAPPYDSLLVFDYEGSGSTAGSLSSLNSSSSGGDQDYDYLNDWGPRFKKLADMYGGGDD
Description: Adhesion tests were conducted substantially as described in Example 1. Briefly, K562 Cells or L cells transfected with wild type or mutant N-cadherin were allowed to settle for 45 minutes at 37° C. onto N-cadherin Fc fusion proteins coated at 1 μg/ml to a 96 well plate. Non-adherent cells were then washed off and residual adherent cells were quantitated by measuring acid phosphatase activity. Assays were conducted in quadruplicate and results are expressed as % cells adhering +/−SEM.
L cells expressing mouse N-cadherin with an uncleaved prodomain (see Koch et al., 2004) were obtained from Dr Weisong Shan (Montreal Neurological Institute). The normal furin cleavage site, RQKR, had been replaced with a Factor Xa site, IEGR, to give the correct N-terminus after digestion. […] L cells suspended in HBSS containing 0.1% BSA were treated with 0.01% trypsin (Sigma, Type XI) in the presence of 2 mM Ca²⁺ for 10 minutes at 37° C. and the digestion was then quenched with soyabean trypsin inhibitor, 0.5 mg per ml (Sigma, Type I-S). Cells were then washed and tested for adhesion to N-cadherin Fc-fusion protein. To check for complete removal of the prodomain, the cells were lysed in SDS sample buffer and the cadherin analysed by SDS PAGE under reducing conditions on a 4-12% gradient gel. […]

binding result [1]: binds
binding result [2]: binds
B1: wild type chicken N-cadherin-Fc fusion protein, dimeric (linked by disulphide bonds at the Ig hinge region) (Fc fusion, UniProt P10288 165-729, looked up)
chain: DWVIPPINLPENSRGPFPQELVRIRSDRDKSLSLRYSVTGPGADQPPTGIFIINPISGQLSVTKPLDREQIASFHLRAHAVDVNGNQVENPIDIVINVIDMNDNRPEFLHQVWNGTVPEGSKPGTYVMTVTAIDADDPNAQNGMLRYRILSQAPSSPSPNMFTINNETGDIITVAAGLDREKVQQYTLIIQATDMEGNPTYGLSNTATAVITVTDVNDNPPEFTAMTFYGEVPENRVDVIVANLTVTDKDQPHTPAWNARYQMTGGDPTGQFTILTDPNSNDGLVTVVKPIDFETNRMFVLTVAAENQVPLAKGIQHPPQSTATVSITVIDVNESPYFVPNPKLVRQEEGLLAGSMLTTFTARDPDRYMQQTSLRYSKLSDPANWLKIDPVNGQITTTAVLDRESIYVQNNMYNATFLASDNGIPPMSGTGTLQIYLLDINDNAPQVNPKEATTCETLQPNAINITAVDPDIDPNAGPFAFELPDSPPSIKRNWTIVRISGDHAQLSLRIRFLEAGIYDVPIVITDSGNPHASSTSVLKVKVCQCDINGDCTDVDRIVGAGLGTG
notes: extracellular domain; also called dimeric N-cadherin-Fc; wild type N-cadherin; not shown: hinge region, CH2 and CH3 domains of human IgG1 heavy chain (vector pIgSig)
